Assays:
Type in all cases: biochemical
[1] = HTP-analysis of yeast culture supernatants, no challenge (MUGal hydrolysis); settings: activity of the variant/activity of WT GLA (SEQ ID NO: 5), yeast supernatant
How it was run: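 GLA variants were expressed in INVSc1 yeast grown in SD-Ura broth with glucose at 30° C., and culture supernatants were collected after 66-84 h. Supernatant was mixed with McIlvaine buffer pH 4.8 and MUGal (2 mM stock) in 50 mM citrate, 200 mM KCl, pH 4.6, incubated at 37° C. for 30-180 minutes, then quenched with sodium carbonate.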

[2] = HTP-analysis of supernatants pretreated with acid (MUGal hydrolysis); settings: challenge at pH 4.2; activity of the variant/activity of WT GLA (SEQ ID NO: 5); yeast supernatant
How it was run: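 Yeast INVSc1 supernatant, GLA variants; acid challenge: McIlvaine pH 3.3-4.3, 37° C., 1-3 h. Assay: MUGal in McIlvaine pH 4.8 plus citrate pH 4.3, 37° C., 30-180 min, Na2CO3 stop, Ex 355/Em 448 nm.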

[3] = HTP-analysis of supernatants pretreated with base (MUGal hydrolysis); settings: challenge at pH 7.1; activity of the variant/activity of WT GLA (SEQ ID NO: 5); yeast supernatant
How it was run: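 GLA variants were secreted by transformed INVSc1 yeast grown 66-84 h at 30° C. Supernatants were exposed to neutral-to-basic buffers (pH 7.0-9.7) at 37° C for 1-18 h, then assayed with MUGal in acidic citrate/McIlvaine buffer, with fluorescence read after quenching.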

B1: 93 (protein)
chain: LDNGLARTPTMGWLHWERFMCNLDCQEEPDSCISEKLFMEMAELMVSEGWKDAGYEYLCIDDCWMAPQRDSEGRLQADPQRFPHGIRQLANYVHSRGLKLGIYADVGNKTCAGFPGSFGYYDIDAQTFADWGVDLLKFDGCYCDSLENLADGYKHMSLALNRTGRSIVYSCEWPLYMWPFQKPNYTEIRQYCNHWRNFADIDDSWKSIKSILDWTSFNQERIVDVAGPGGWNDPDMLVIGNFGLSWNQQVTQMALWAIMAAPLFMSNDLRHISPQAKALLQDKDVIAINQDPLGKQGYQLRQGDNFEVWERPLSGLAWAVAMINRQEIGGPRSYTIAVASLGKGVACNPACFITQLLPVKRKLGFYEWTSRLRSHINPTGTVLLQLENTMQMSKDLVL
modifications: Synthetic Polypeptide sequence of Variant No. 93 of mature Human GLA
**Q.** What does the source list for B1?
**A.** Relative Activity of GLA Variants After No Challenge (NC) [1]: ++ (++ = >1.5 to 2.5 relative activity over WT GLA (SEQ ID NO: 5)); Relative Activity of GLA Variants After Challenge at pH 4.2 [2]: +++ (+++ = >2.5 relative activity over WT GLA (SEQ ID NO: 5)); Relative Activity of GLA Variants After Challenge at pH 7.1 [3]: + (+ = 0.5 to 1.5 relative activity over WT GLA (SEQ ID NO: 5))

B2: 94 (protein)
chain: LDNGLARTPTMGWLHWERFMCNLDCQEEPDSCISEKLFMEMAELMVSEGWKDAGYEYLCIDDCWMAPQRDSEGRLQADPQRFPHGIRQLANYVHSKGLKFGIYADVGNKTCAGFPGSFGYYDIDAQTFADWGVDLLKFDGCYCDSLENLADGYKHMSLALNRTGRSIVYSCEWPLYMWPFQKPNYTEIRQYCNHWRNFADIDDSWKSIKSILDWTSFNQERIVDVAGPGGWNDPDMLVIGNFGLSWNQQVTQMALWAIMAAPLFMSNDLRHISPQAKALLQDKDVIAINQDPLGKQGYQLRQGDNFEVWERPLSGLAWAVAMINRQEIGGPRSYTIAVASLGKGVACNPACFITQLLPVKRKLGFYEWTSRLRSHINPTGTVLLQLENTMQMSKDLLL
modifications: Synthetic Polypeptide sequence of Variant No. 94 of mature Human GLA
**Q.** Which “Relative Activity of GLA Variants After No Challenge (NC)” value [1] does the source give for B2 here?
**A.** + (+ = 0.5 to 1.5 relative activity over WT GLA (SEQ ID NO: 5))

**Q.** And the “Relative Activity of GLA Variants After Challenge at pH 4.2” value (“Relative Activity … at pH 4.2” below) [2]?
**A.** + (+ = 0.5 to 1.5 relative activity over WT GLA (SEQ ID NO: 5))

**Q.** What about the “Relative Activity of GLA Variants After Challenge at pH 7.1” value (shortened to “Relative Activity … at pH 7.1”) [3] of the same molecule?
**A.** + (+ = 0.5 to 1.5 relative activity over WT GLA (SEQ ID NO: 5))

B3: 95 (protein)
chain: LDNGLARTPTMGWLHWERFMCNLDCQEEPDSCISEKLFMEMAELMVSEGWKDAGYEYLCIDDCWMAPQRDSEGRLQADPQRFPHGIRQLANYVHSKGLKLGIYADVGNKTCAGFPGSFGYYDIDAQTFADWGVDLLKFDGCYCDSLENLADGYKHMSAALNRTGRSIVYSCEWPLYMWPFQKPNYTEIRQYCNHWRNFADIDDSWKSIKSILDWTSFNQERIVDVAGPGGWNDPDMLVIGNFGLSWNQQVTQMALWAIMAAPLFMSNDLRHISPQAKALLQDKDVIAINQDPLGKQGYQLRQGDNFEVWERPLSGLAWAVAMINRQEIGGPRSYTIAVASLGKGVACNPACFITQLLPVKRKLGFYEWTSRLRSHINPTGTVLLQLENTMQMSKDLLL
modifications: Synthetic Polypeptide sequence of Variant No. 95 of mature Human GLA
**Q.** Which results are given for B3?
**A.** Relative Activity of GLA Variants After No Challenge (NC) [1]: + (+ = 0.5 to 1.5 relative activity over WT GLA (SEQ ID NO: 5)); Relative Activity of GLA Variants After Challenge at pH 4.2 [2]: + (+ = 0.5 to 1.5 relative activity over WT GLA (SEQ ID NO: 5)); Relative Activity of GLA Variants After Challenge at pH 7.1 [3]: + (+ = 0.5 to 1.5 relative activity over WT GLA (SEQ ID NO: 5))

B4: 96 (protein)
chain: LDNGLARTPTMGWLHWERFMCNLDCQEEPDSCISEKLFMEMAELMVSEGWKDAGYEYLCIDDCWMAPQRDSEGRLQADPQRFPHGIRQLANYVHSKGLKLGIYADVGNKTCAGFPGSFGYYDIDAQTFADWGVDLLKFDGCYCDSLENLADGYKHMSIALNRTGRSIVYSCEWPLYMWPFQKPNYTEIRQYCNHWRNFADIDDSWKSIKSILDWTSFNQERIVDVAGPGGWNDPDMLVIGNFGLSWNQQVTQMALWAIMAAPLFMSNDLRHISPQAKALLQDKDVIAINQDPLGKQGYQLRQGDNFEVWERPLSGLAWAVAMINRQEIGGPRSYTIAVASLGKGVACNPACFITQLLPVKRKLGFYEWTSRLRSHINPTGTVLLQLENTMQMSKDLLL
modifications: Synthetic Polypeptide sequence of Variant No. 96 of mature Human GLA
**Q.** What does the source list for B4?
**A.** Relative Activity of GLA Variants After No Challenge (NC) [1]: + (+ = 0.5 to 1.5 relative activity over WT GLA (SEQ ID NO: 5)); Relative Activity of GLA Variants After Challenge at pH 4.2 [2]: + (+ = 0.5 to 1.5 relative activity over WT GLA (SEQ ID NO: 5)); Relative Activity of GLA Variants After Challenge at pH 7.1 [3]: + (+ = 0.5 to 1.5 relative activity over WT GLA (SEQ ID NO: 5))

B5: 97 (protein)
chain: LDNGLARTPTMGWLHWERFMCNLDCQEEPDSCISEKLFMEMAELMVSEGWKDAGYEYLCIDDCWMAPQRDSEGRLQADPQRFPHGIRQLANYVHSKGLKLGIYADVGNKTCAGFPGSFGYYDIDAQTFADWGVDLLKFDGCYCDSLENLADGYKHMSMALNRTGRSIVYSCEWPLYMWPFQKPNYTEIRQYCNHWRNFADIDDSWKSIKSILDWTSFNQERIVDVAGPGGWNDPDMLVIGNFGLSWNQQVTQMALWAIMAAPLFMSNDLRHISPQAKALLQDKDVIAINQDPLGKQGYQLRQGDNFEVWERPLSGLAWAVAMINRQEIGGPRSYTIAVASLGKGVACNPACFITQLLPVKRKLGFYEWTSRLRSHINPTGTVLLQLENTMQMSKDLLL
modifications: Synthetic Polypeptide sequence of Variant No. 97 of mature Human GLA
**Q.** For B5, which “Relative Activity of GLA Variants After No Challenge (NC)” value [1] is on record?
**A.** + (+ = 0.5 to 1.5 relative activity over WT GLA (SEQ ID NO: 5))

**Q.** What about the “Relative Activity … at pH 4.2” value [2] of the same molecule?
**A.** + (+ = 0.5 to 1.5 relative activity over WT GLA (SEQ ID NO: 5))

**Q.** What about the “Relative Activity … at pH 7.1” value [3] of the same molecule?
**A.** + (+ = 0.5 to 1.5 relative activity over WT GLA (SEQ ID NO: 5))

B6: 98 (protein)
chain: LDNGLARTPTMGWLHWERFMCNLDCQEEPDSCISEKLFMEMAELMVSEGWKDAGYEYLCIDDCWMAPQRDSEGRLQADPQRFPHGIRQLANYVHSKGLKLGIYADVGNKTCAGFPGSFGYYDIDAQTFADWGVDLLKFDGCYCDSLENLADGYKHMSRALNRTGRSIVYSCEWPLYMWPFQKPNYTEIRQYCNHWRNFADIDDSWKSIKSILDWTSFNQERIVDVAGPGGWNDPDMLVIGNFGLSWNQQVTQMALWAIMAAPLFMSNDLRHISPQAKALLQDKDVIAINQDPLGKQGYQLRQGDNFEVWERPLSGLAWAVAMINRQEIGGPRSYTIAVASLGKGVACNPACFITQLLPVKRKLGFYEWTSRLRSHINPTGTVLLQLENTMQMSKDLLL
modifications: Synthetic Polypeptide sequence of Variant No. 98 of mature Human GLA
**Q.** With B6 as the molecule, how does the “Relative Activity of GLA Variants After No Challenge (NC)” value [1] read?
**A.** + (+ = 0.5 to 1.5 relative activity over WT GLA (SEQ ID NO: 5))

**Q.** What about the “Relative Activity … at pH 4.2” value [2] of the same molecule?
**A.** + (+ = 0.5 to 1.5 relative activity over WT GLA (SEQ ID NO: 5))

**Q.** And the “Relative Activity … at pH 7.1” value [3]?
**A.** + (+ = 0.5 to 1.5 relative activity over WT GLA (SEQ ID NO: 5))

B7: 99 (protein)
chain: LDNGLARTPTMGWLHWERFMCNMDCQEEPDSCISEKLFMEMAELMVSEGWKDAGYEYLCIDDCWMAPQRDSEGRLQADPQRFPHGIRQLANYVHSKGLKLGIYADVGNKTCAGFPGSFGYYDIDAQTFADWGVDLLKFDGCYCDSLENLADGYKHMSLALNRTGRSIVYSCEWPLYMWPFQKPNYTEIRQYCNHWRNFADIDDSWKSIKSILDWTSFNQERIVDVAGPGGWNDPDMLVIGNFGLSWNQQVTQMALWAIMAAPLFMSNDLRHISPQAKALLQDKDVIAINQDPLGKQGYQLRQGDNFEVWERPLSGLAWAVAMINRQEIGGPRSYTIAVASLGKGVACNPACFITQLLPVKRKLGFYEWTSRLRSHINPTGTVLLQLENTMQMSKDLLL
modifications: Synthetic Polypeptide sequence of Variant No. 99 of mature Human GLA
**Q.** With B7 as the molecule, how does the “Relative Activity of GLA Variants After No Challenge (NC)” value [1] read?
**A.** + (+ = 0.5 to 1.5 relative activity over WT GLA (SEQ ID NO: 5))

**Q.** And the “Relative Activity … at pH 4.2” value [2]?
**A.** + (+ = 0.5 to 1.5 relative activity over WT GLA (SEQ ID NO: 5))

**Q.** And the “Relative Activity … at pH 7.1” value [3]?
**A.** + (+ = 0.5 to 1.5 relative activity over WT GLA (SEQ ID NO: 5))

B8: 100 (protein)
chain: LDNGLARTPTMGWLHWERFMCNTDCQEEPDSCISEKLFMEMAELMVSEGWKDAGYEYLCIDDCWMAPQRDSEGRLQADPQRFPHGIRQLANYVHSKGLKLGIYADVGNKTCAGFPGSFGYYDIDAQTFADWGVDLLKFDGCYCDSLENLADGYKHMSLALNRTGRSIVYSCEWPLYMWPFQKPNYTEIRQYCNHWRNFADIDDSWKSIKSILDWTSFNQERIVDVAGPGGWNDPDMLVIGNFGLSWNQQVTQMALWAIMAAPLFMSNDLRHISPQAKALLQDKDVIAINQDPLGKQGYQLRQGDNFEVWERPLSGLAWAVAMINRQEIGGPRSYTIAVASLGKGVACNPACFITQLLPVKRKLGFYEWTSRLRSHINPTGTVLLQLENTMQMSKDLLL
modifications: Synthetic Polypeptide sequence of Variant No. 100 of mature Human GLA
**Q.** Which “Relative Activity of GLA Variants After No Challenge (NC)” value [1] does the source give for B8 here?
**A.** + (+ = 0.5 to 1.5 relative activity over WT GLA (SEQ ID NO: 5))

**Q.** And the “Relative Activity … at pH 4.2” value [2]?
**A.** + (+ = 0.5 to 1.5 relative activity over WT GLA (SEQ ID NO: 5))

**Q.** And the “Relative Activity … at pH 7.1” value [3]?
**A.** + (+ = 0.5 to 1.5 relative activity over WT GLA (SEQ ID NO: 5))

— patent US11278600B2, “Human alpha-galactosidase variants” (Codexis, Inc., priority 2014, dated 2022)
